What was measured:
Assay type in all cases: biochemical
Set-up in all cases: key to Activity of mutant relative to wild-type Gaussia luciferase without the signal peptide: ratio of mutant luminescence intensity to wild-type Gaussia luciferase
[1] = Luminescence activity assay of purified Gaussia luciferase mutants on coelenterazine; conditions: Substrate CTZ (Table 16)
How it was run: (§1)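 Readout: luminescence intensity, as ratio to signal-peptide-free wild-type enzyme. Enzyme 1 μg/mL, substrate 100 μM stock, 10 μL + 90 μL; buffer 50 mM Tris-HCl pH 8.0, 100 mM NaCl, 0.1% Tween-20.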

[2] = Luminescence activity assay of purified Gaussia luciferase mutants on fluoro-coelenterazine; conditions: Substrate f-CTZ (Table 16)
How it was run: as §1

[3] = Luminescence activity assay of purified Gaussia luciferase mutants on coelenterazine derivative ZS2; conditions: Substrate ZS2 (Table 16)
How it was run: as §1

| Molecule | Activity of mutant relative to wild-type Gaussia luciferase without the signal peptide [1] | Activity of mutant relative to wild-type Gaussia luciferase without the signal peptide [2] | Activity of mutant relative to wild-type Gaussia luciferase without the signal peptide [3] |
| --- | --- | --- | --- |
| Q152H Q163D S170N G174S Q175E D177S A182Y: Gaussia luciferase mutant (protein, SIGNAL (1)..(17), Gaussia luciferase mutant) MGVKVLFALICIAVAEAKPTENNEDFNIVAVASNFATTDLDADRGKLPGKKLPLEVLKEMEANARKAGCTRGCLICLSHIKCTPKMKKFIPGRCHTYEGDKESAQGGIGEAIVDIPEIPGFKDLEPMEQFIAQVDLCVDCTTGCLKGLANVHCSDLLKKWLPDRCATFANKIQSEVSKIKGYGGD | 1.007 | 0.404 | 0.347 |
| Q152H Q163D T167S S170N G174K A182L G183N: Gaussia luciferase mutant (protein, SIGNAL (1)..(17), Gaussia luciferase mutant) MGVKVLFALICIAVAEAKPTENNEDFNIVAVASNFATTDLDADRGKLPGKKLPLEVLKEMEANARKAGCTRGCLICLSHIKCTPKMKKFIPGRCHTYEGDKESAQGGIGEAIVDIPEIPGFKDLEPMEQFIAQVDLCVDCTTGCLKGLANVHCSDLLKKWLPDRCASFANKIQKQVDKIKGLNGD | 0.144 | 0.234 | 0.159 |
| Q152H Q163D T167S S170D G174K Q175E K178S A182Y G183N: Gaussia luciferase mutant (protein, SIGNAL (1)..(17), Gaussia luciferase mutant) MGVKVLFALICIAVAEAKPTENNEDFNIVAVASNFATTDLDADRGKLPGKKLPLEVLKEMEANARKAGCTRGCLICLSHIKCTPKMKKFIPGRCHTYEGDKESAQGGIGEAIVDIPEIPGFKDLEPMEQFIAQVDLCVDCTTGCLKGLANVHCSDLLKKWLPDRCASFADKIQKEVDSIKGYNGD | 0.383 | 0.509 | 0.068 |
| Q152H Q163D T167G S170V G174K Q175E K178N: Gaussia luciferase mutant (protein, SIGNAL (1)..(17), Gaussia luciferase mutant) MGVKVLFALICIAVAEAKPTENNEDFNIVAVASNFATTDLDADRGKLPGKKLPLEVLKEMEANARKAGCTRGCLICLSHIKCTPKMKKFIPGRCHTYEGDKESAQGGIGEAIVDIPEIPGFKDLEPMEQFIAQVDLCVDCTTGCLKGLANVHCSDLLKKWLPDRCAGFAVKIQKEVDNIKGAGGD | 1.749 | 0.215 | 0.862 |
| Q152H S170D G174S K178T A182L: Gaussia luciferase mutant (protein, SIGNAL (1)..(17), Gaussia luciferase mutant) MGVKVLFALICIAVAEAKPTENNEDFNIVAVASNFATTDLDADRGKLPGKKLPLEVLKEMEANARKAGCTRGCLICLSHIKCTPKMKKFIPGRCHTYEGDKESAQGGIGEAIVDIPEIPGFKDLEPMEQFIAQVDLCVDCTTGCLKGLANVHCSDLLKKWLPQRCATFADKIQSQVDTIKGLGGD | 4.938 | 2.069 | 2.672 |
| Q152H Q163T T167G S170N Q175E A182L G183A: Gaussia luciferase mutant (protein, SIGNAL (1)..(17), Gaussia luciferase mutant) MGVKVLFALICIAVAEAKPTENNEDFNIVAVASNFATTDLDADRGKLPGKKLPLEVLKEMEANARKAGCTRGCLICLSHIKCTPKMKKFIPGRCHTYEGDKESAQGGIGEAIVDIPEIPGFKDLEPMEQFIAQVDLCVDCTTGCLKGLANVHCSDLLKKWLPTRCAGFANKIQGEVDKIKGLAGD | 0.177 | 0.172 | 0.087 |
| Q152H Q163T T167G S170D G174N A182M G183A: Gaussia luciferase mutant (protein, SIGNAL (1)..(17), Gaussia luciferase mutant) MGVKVLFALICIAVAEAKPTENNEDFNIVAVASNFATTDLDADRGKLPGKKLPLEVLKEMEANARKAGCTRGCLICLSHIKCTPKMKKFIPGRCHTYEGDKESAQGGIGEAIVDIPEIPGFKDLEPMEQFIAQVDLCVDCTTGCLKGLANVHCSDLLKKWLPTRCAGFADKIQNQVDKIKGMAGD | 0.080 | 0.478 | 0.001 |
| P84K E102K S103I E110P L124M V138D: Gaussia luciferase mutant (protein, SIGNAL (1)..(17), Gaussia luciferase mutant) MGVKVLFALICIAVAEAKPTENNEDFNIVAVASNFATTDLDADRGKLPGKKLPLEVLKEMEANARKAGCTRGCLICLSHIKCTKKMKKFIPGRCHTYEGDKKIAQGGIGPAIVDIPEIPGFKDMEPMEQFIAQVDLCDDCTTGCLKGLANVQCSDLLKKWLPQRCATFASKIQGQVDKIKGAGGD | 0.036 | 3.010 | 0.536 |
| E102K S103T A104G E110G V138D: Gaussia luciferase mutant (protein, SIGNAL (1)..(17), Gaussia luciferase mutant) MGVKVLFALICIAVAEAKPTENNEDFNIVAVASNFATTDLDADRGKLPGKKLPLEVLKEMEANARKAGCTRGCLICLSHIKCTPKMKKFIPGRCHTYEGDKKTGQGGIGGAIVDIPEIPGFKDLEPMEQFIAQVDLCDDCTTGCLKGLANVQCSDLLKKWLPQRCATFASKIQGQVDKIKGAGGD | 0.106 | 4.919 | 0.065 |

Further lines, results first:

| Activity of mutant relative to wild-type Gaussia luciferase without the signal peptide [1] | Activity of mutant relative to wild-type Gaussia luciferase without the signal peptide [2] | Activity of mutant relative to wild-type Gaussia luciferase without the signal peptide [3] | Molecule |
| --- | --- | --- | --- |
| 0.194 | 0.299 | 0.026 | Q152K Q163T S170N G174N K178S A182Y G183A: Gaussia luciferase mutant (protein, SIGNAL (1)..(17), Gaussia luciferase mutant) MGVKVLFALICIAVAEAKPTENNEDFNIVAVASNFATTDLDADRGKLPGKKLPLEVLKEMEANARKAGCTRGCLICLSHIKCTPKMKKFIPGRCHTYEGDKESAQGGIGEAIVDIPEIPGFKDLEPMEQFIAQVDLCVDCTTGCLKGLANVKCSDLLKKWLPTRCATFANKIQNQVDSIKGYAGD |
| 1.171 | 1.864 | 2.367 | Q152R Q163S T167G S170T G174K K178S A182M G183A: Gaussia luciferase mutant (protein, SIGNAL (1)..(17), Gaussia luciferase mutant) MGVKVLFALICIAVAEAKPTENNEDFNIVAVASNFATTDLDADRGKLPGKKLPLEVLKEMEANARKAGCTRGCLICLSHIKCTPKMKKFIPGRCHTYEGDKESAQGGIGEAIVDIPEIPGFKDLEPMEQFIAQVDLCVDCTTGCLKGLANVRCSDLLKKWLPSRCAGFATKIQKQVDSIKGMAGD |
| 0.011 | 0.512 | 0.136 | Q152K Q163S T167G S170V G174K Q175E K180: Gaussia luciferase mutant (protein) MGVKVLFALICIAVAEAKPTENNEDFNIVAVASNFATTDLDADRGKLPGKKLPLEVLKEMEANARKAGCTRGCLICLSHIKCTPKMKKFIPGRCHTYEGDKESAQGGIGEAIVDIPEIPGFKDLEPMEQFIAQVDLCVDCTTGCLKGLANVKCSDLLKKWLPSRCAGFAVKIQKEVDKIKGAGGD |
| 0.906 | 1.175 | 0.819 | Q152K Q163S T167S S170N G174N K178S A182Y G183A: Gaussia luciferase mutant (protein, SIGNAL (1)..(17), Gaussia luciferase mutant) MGVKVLFALICIAVAEAKPTENNEDFNIVAVASNFATTDLDADRGKLPGKKLPLEVLKEMEANARKAGCTRGCLICLSHIKCTPKMKKFIPGRCHTYEGDKESAQGGIGEAIVDIPEIPGFKDLEPMEQFIAQVDLCVDCTTGCLKGLANVKCSDLLKKWLPSRCASFANKIQNQVDSIKGYAGD |
| 0.615 | 0.583 | 0.723 | Q152H S170D Q175E A182Y: Gaussia luciferase mutant (protein, SIGNAL (1)..(17), Gaussia luciferase mutant) MGVKVLFALICIAVAEAKPTENNEDFNIVAVASNFATTDLDADRGKLPGKKLPLEVLKEMEANARKAGCTRGCLICLSHIKCTPKMKKFIPGRCHTYEGDKESAQGGIGEAIVDIPEIPGFKDLEPMEQFIAQVDLCVDCTTGCLKGLANVHCSDLLKKWLPQRCATFADKIQGEVDKIKGYGGD |

From US20250066745A1, “MUTANTS AND USE THEREOF” (BGI SHENZHEN, priority 2021, published 2025)
